In the supplement of paper PMC10724198:
± gives the standard deviation of the averaged measurements.

System: Saccharomyces cerevisiae
Experiment: protein stability index of tFT-peptide fusion (C-terminal peptide) (PSI (0-1 scale)); higher = more stable (slower turnover)
Settings: genetic background: wild type; temperature: 30 C
Protocol: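 Multiplexed protein stability (MPS) profiling in S. cerevisiae. Random 12-aa peptides (tFT-X12 library) are fused to the C-terminus of a sfGFP-mCherry tandem fluorescent timer, after mCherry and a GGGS linker. Cells are FACS-sorted into 8 mCherry/sfGFP bins and deep-sequenced. The protein stability index (PSI) is the read-weighted bin average, scaled from 0 (unstable) to 1 (stable). Only peptides with >10 reads are reported; cells were grown at 30 °C in SC-His with glucose.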
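Further: PSI is a weighted mean of sequencing reads over stability bins, variants kept only with over 10 reads, mCherry proximal and sfGFP distal, peptide attached via GGGS linker.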

Row | Sequence | protein stability index
1 | FSTLLVSPLQAS | 0.641 ± 0.022
2 | LPFTLLPPVLSL | 0.596 ± 0.0062
3 | RRSVMLISNETR | 0.698 ± 0.038
4 | GGVRGWAAFSAE | 0.682 ± 0.028
5 | GGAPAPPSRRPW | 0.696 ± 0.032
6 | DGLWIYNINDGH | 0.7314 ± 0.0019
7 | RHENKKDKIRME | 0.701 ± 0.11
8 | PAPLSPTHPPLP | 0.71 ± 0.053
9 | QQLWQTHEHQAR | 0.674 ± 0.035
10 | PTSLPLPPPSLS | 0.7333 ± 0.0056
11 | RGTGPPGALREE | 0.653 ± 0.046
12 | EGCGLQRGMGVL | 0.681 ± 0.0096
13 | RLDAGASAAFKG | 0.7184 ± 0.00093
14 | LLNAGAMKGRLG | 0.6782 ± 0.0038
15 | APFMSLSNTIAR | 0.677 ± 0.026
16 | PHQCLSFPPRFK | 0.744 ± 0.082
17 | CSAESASPAERY | 0.6541 ± 0.0013
18 | GSGQPDPRDAIG | 0.677 ± 0.057
19 | NIPAAGCPRATA | 0.711 ± 0.033
20 | HIFAQSFLNIRI | 0.709 ± 0.04
21 | RLVNSVAVSFLR | 0.697 ± 0.1
22 | VEAWGVGVGSTV | 0.676 ± 0.021
23 | CWGEGGRTVING | 0.639 ± 0.03
24 | VRGVGGLWGGAV | 0.785 ± 0.17
25 | GGRGGRGQGWYR | 0.661 ± 0.007

Row | Sequence | protein stability index
26 | PRGLLLPLPCHS | 0.574 ± 0.00058
27 | DRNVMNGFTRPG | 0.659 ± 0.034
28 | TVKYVVSTRAFI | 0.627 ± 0.044
29 | PLGVPPPAPSSP | 0.6943 ± 0.0024
30 | ANRSPLFCVTFG | 0.695 ± 0.027
31 | LILEKHEMIGRR | 0.681 ± 0.026
32 | VCGSIRVIAWGD | 0.671 ± 0.057
33 | GGKGGWHRRWGC | 0.643 ± 0.062
34 | PAGILMQDSRRA | 0.589 ± 0.051
35 | PPPPPRPSPRPS | 0.796 ± 0.013
36 | KCLDSARSSVLP | 0.651 ± 0.043
37 | PAPPPLLPPPPP | 0.597 ± 0.016
38 | CPFLSISSNCSM | 0.667 ± 0.027
39 | HRCVQFMNWVAF | 0.735 ± 0.045
40 | QSQMEKGTIVWT | 0.705 ± 0.011
41 | APACRLTLVSDF | 0.752 ± 0.014
42 | NMPIGVRLLLGR | 0.652 ± 0.011
43 | PPLPPQLVQDLL | 0.72 ± 0.073
44 | PSPSLYPPASPP | 0.654 ± 0.046
45 | KHNRISEKHQKS | 0.643 ± 0.0095
46 | TIVSFYVRFLSG | 0.583 ± 0.15
47 | CCCELNTEIVQT | 0.682 ± 0.059
48 | SFRDRHRRLCDL | 0.596 ± 0.035
49 | SPTPPPPSPLAP | 0.726 ± 0.059
50 | SIIGRKVNGVSN | 0.711 ± 0.0089

Row | Sequence | protein stability index
51 | LVLPASSPCLFF | 0.647 ± 0.034
52 | SPTPLLPLASSP | 0.695 ± 0.052
53 | EDNRTSEMFVFY | 0.753 ± 0.14
54 | EGVSGVSLFRVL | 0.661 ± 0.051
55 | PSPPTSLPPTDA | 0.706 ± 0.029
56 | TPNLHPPSAATP | 0.668 ± 0.038
57 | NNMNRKKGKKKT | 0.7027 ± 0.0018
58 | GHVLVRHNVLAV | 0.58 ± 0.026
59 | FRAPYWCSRVFG | 0.715 ± 0.095
60 | ASFSLSPFLPFS | 0.6854 ± 0.0068
61 | GTLYLRVTSKEK | 0.717 ± 0.044
62 | SWAGGRWRRVPV | 0.658 ± 0.04
63 | THFPFPVLFSLP | 0.592 ± 0.03
64 | WGGGGPGWGSRG | 0.621 ± 0.027
65 | RHKLYPRIVLNR | 0.699 ± 0.055
66 | SFPSLLRPPHFS | 0.706 ± 0.041
67 | VYYRRFTGGGLY | 0.583 ± 0.016
68 | TWPSGRASGHVG | 0.702 ± 0.0079
69 | WGWGWWEMVGRT | 0.674 ± 0.0039
70 | PQFSPCRLALLS | 0.616 ± 0.018
71 | LPVCAFGWPVKS | 0.6566 ± 0.0037
72 | GDSGPDDDLGIS | 0.667 ± 0.065
73 | IICSKLHSPLVV | 0.509 ± 0.031
74 | PPPHPPRPPVPR | 0.697 ± 0.016
75 | SAVSVATVVWSV | 0.705 ± 0.092

Row | Sequence | protein stability index
76 | LLRVMRAVFSGL | 0.623 ± 0.015
77 | ELRADRTYTGIV | 0.752 ± 0.054
78 | HIHKKGPSGHQK | 0.696 ± 0.028
79 | FCCSYLSRGDFL | 0.702 ± 0.023
80 | ERGSGSVPGGRD | 0.649 ± 0.035
81 | CPNLWSRFASRC | 0.716 ± 0.0085
82 | PRPTPPHSPLLP | 0.586 ± 0.02
83 | IYSGIYCVGAKH | 0.666 ± 0.03
84 | RPIQPATLAYSP | 0.682 ± 0.037
85 | IGARLMVGASRK | 0.775 ± 0.16
86 | TTGGRGSRGGGR | 0.723 ± 0.039
87 | KFYIIKRLSGVE | 0.64 ± 0.029
88 | SSVCPWACPPPP | 0.666 ± 0.1
89 | PPAPPLPAPPWA | 0.54 ± 0.032
90 | CRGWWRPGLGVT | 0.64 ± 0.015
91 | WGTVIYGVGSGQ | 0.691 ± 0.036
92 | LQHGKSRCAFRK | 0.652 ± 0.026
93 | APDPPGLRGLSP | 0.719 ± 0.015
94 | DGTICAITYLTS | 0.6653 ± 0.0017
95 | SRWWSRPRYRDG | 0.752 ± 0.017
96 | RYFSFNVSSCLD | 0.767 ± 0.048
97 | DTNRALMRKSHS | 0.673 ± 0.0088
98 | GGGVYPAGVVSG | 0.658 ± 0.01
99 | DFFPVSGLANEH | 0.636 ± 0.092
100 | PPLTRRSTLMSY | 0.591 ± 0.042

Row | Sequence | protein stability index
101 | PPDPPWPRSPPA | 0.588 ± 0.019
102 | LIGASFGLYPVS | 0.693 ± 0.07
103 | VMTRVIYRGVGR | 0.6643 ± 0.00051
104 | KNEKNERKIATQ | 0.682 ± 0.016
105 | GGRLGRGAKGRV | 0.669 ± 0.082
106 | RNKINKKKLKKG | 0.7403 ± 0.0062
107 | TATYCFNALRRS | 0.72 ± 0.052
108 | LFVEFFACRSFN | 0.722 ± 0.011
109 | VRVCGPSCFRPG | 0.628 ± 0.05
110 | GAYSSFNGNSGD | 0.681 ± 0.064
111 | PPRPPPNTPLPA | 0.725 ± 0.035
112 | ALCEVLSKSFEF | 0.6617 ± 0.0025
113 | GFVLSFADLLGV | 0.653 ± 0.054
114 | PPRSIPLPSPFH | 0.741 ± 0.016
115 | AGAGGGSLGPAG | 0.651 ± 0.1
116 | EITLFELWPPGS | 0.78 ± 0.03
117 | RVRGTLMLRSYG | 0.64 ± 0.037
118 | TLDTICNTTKQR | 0.675 ± 0.047
119 | SPPLGFAPPSRS | 0.853 ± 0.046
120 | PSVAPFPLAPFS | 0.71 ± 0.066
121 | QCIYVCKKTPTI | 0.679 ± 0.067
122 | GAVHQLGTCLFF | 0.671 ± 0.045
123 | VHTCVSYTNCMD | 0.703 ± 0.026
124 | GTKGGPSGLEPP | 0.7125 ± 0.0018
125 | AAVPPLSQSPDS | 0.674 ± 0.03

Row | Sequence | protein stability index
126 | DKKKRRERKDRT | 0.6746 ± 0.0061
127 | GFYAMWNSIFWF | 0.743 ± 0.001
128 | KRKKKRQKNKGK | 0.766 ± 0.13
129 | VECPFGTAGCHI | 0.659 ± 0.057
130 | AEGPWMEDGDMG | 0.7024 ± 0.0028
131 | FFSSSLMRLGCF | 0.6343 ± 0.00098
132 | PPPPPPPLVPPS | 0.595 ± 0.036
133 | APFPMVSSLSFL | 0.761 ± 0.037
134 | CAEFLFSTVLYP | 0.735 ± 0.049
135 | SPAPPVPLHPPH | 0.714 ± 0.089
136 | FPPAHPVHFSPP | 0.717 ± 0.047
137 | KRQWAGRDGEGR | 0.662 ± 0.0068
138 | FVSTSFPPWFSL | 0.684 ± 0.019
139 | RWIWTRESTFSN | 0.705 ± 0.016
140 | PYQPSPFRLAAG | 0.67 ± 0.1
141 | SVWCRWGWSDWG | 0.795 ± 0.051
142 | FLLPPAPRPAPP | 0.76 ± 0.086
143 | RGRWGGGRVVRG | 0.6944 ± 0.0062
144 | FWEHFVLSVRPE | 0.758 ± 0.076
145 | DNGVLVFLPVLD | 0.6791 ± 0.0066
146 | LLRFSFLHFLFY | 0.6116 ± 0.003
